Drawing on publication PMC4576209, “Biochemical characterization of FIKK8 – A unique protein kinase from the malaria parasite Plasmodium falciparum and other apicomplexans” (Molecular and Biochemical Parasitology, 2015), this text covers Km, kcat and kcat/Km for one protein.

Substrate in the data set: Nc1ncnc2c1ncn2[C@@H]1O[C@H](COP(=O)(O)OP(=O)(O)OP(=O)(O)O)[C@@H](O)[C@H]1O
The data set is described as follows: LDH-PK coupled kinase assay. It counts as biochemical, Cryptosporidium parvum. Particulars: peptide substrate; MgCl2 stated only for autophosphorylation.

B1: CpFIKKd (Cryptosporidium parvum Iowa II) (protein)
chain: GKNDKVCYTWKEAKQLISKLKSSTKLYKFNGVPFSDWAHEKIPTLGASPTSCRVQEMFKSRIYLEKNNEVYATLFIKKIPRNIWSKQWEMHEIWDGDYVTDGEDFVMEAAALAFLQNHSVGIAPRLYAILEHCEDNCNDINSNKESKIQYRNIANRNACDYLLSKDTTHIILVSEHYGEDLLDYLDKCEKKNRNLTDKEKKELQYKLALALNNLHSKGLCHLDFTPENILIGPNGINICDFAKSTPIITKNPRHTHYSRKSPKNHLSENFNSNNTSFNFINPPPEAYCEFESCEPTVGKGAYMPPECWKIFWRLEENKIQFPLEELMDIDTYNRRSNYSYFNEFSRIHNKSPIKCQDRSMFYFNTRIADIYMLGIIMFWIWSDGGIWKYSDTRQDHRYQNLVFSDINFDVFRECRGWNKQLKSLLKKMLEPDPNKRITMSEILSDPWWKCPLDE
notes: kinase domain plus N-terminal extension (38 or more residues); E. coli
With B1, the Km (commonly the concentration of substrate that gives half-maximal velocity) was 48.0 ± 0.9 µM; the kcat (in general, the maximal rate divided by the concentration of active sites) stood at 1.3 ± 0.0083 s⁻¹; the kcat/Km (in general, the turnover number divided by the Michaelis constant) was 26700 M⁻¹ s⁻¹.
